Test results reported in the Immune Epitope Database (IEDB).
One block for each sequence: values may come before it.

How the values were obtained:
HLA-A*01:01 = assay: IEDB peptide-MHC binding, purified MHC/direct/fluorescence; filed as Kd, often an IC50 or EC50 that approximates it; ≥ and ≤ were set here for values at or beyond the usual limits of such assays
HLA-A*02:01 [1] = assay: as above
HLA-A*03:01 = assay: as above
HLA-A*11:01 = assay: as above
HLA-A*24:03 = assay: as above
HLA-A*26:01 [2] = assay: as above
HLA-A*30:01 = assay: as above
HLA-A*69:01 [3] = assay: as above
HLA-B*07:02 = assay: as above
HLA-B*08:01 = assay: as above
HLA-B*15:01 = assay: as above
HLA-B*40:01 = assay: as above
HLA-B*58:01 = assay: as above
HLA-A*02:01 [4] = assay: IEDB peptide-MHC binding, purified MHC/competitive/fluorescence; filed as Kd, often an IC50 or EC50 that approximates it; ≥ and ≤ were set here for values at or beyond the usual limits of such assays
HLA-A*02:06 = assay: as above
HLA-A*02:03 = assay: as above
HLA-A*02:11 = assay: as above
HLA-A*02:12 = assay: as above
HLA-A*02:19 = assay: as above
HLA-A*69:01 [5] = assay: as above
HLA-A*02:16 = assay: as above; conditions: source organism: Vibrio cholerae O395
HLA-A*26:01 [6] = assay: as above; conditions: source organism: Vibrio cholerae O395
HLA-A*29:02 = assay: as above; conditions: source organism: Vibrio cholerae O395
HLA-A*68:02 [7] = assay: as above; conditions: source organism: Vibrio cholerae O395
HLA-B*18:01 [8] = assay: as above; conditions: source organism: Vibrio cholerae O395
HLA-B*39:01 = assay: as above; conditions: source organism: Vibrio cholerae O395
HLA-B*46:01 [9] = assay: as above; conditions: source organism: Vibrio cholerae O395
HLA-A*31:01 = assay: IEDB peptide-MHC binding, purified MHC/direct/fluorescence; filed as Kd, often an IC50 or EC50 that approximates it; ≥ and ≤ were set here for values at or beyond the usual limits of such assays
HLA-B*27:05 = assay: as above
HLA-A*68:02 [10] = assay: as above; conditions: source organism: Escherichia coli O157:H7
HLA-B*15:17 = assay: as above; conditions: source organism: Escherichia coli O157:H7
HLA-B*18:01 [11] = assay: as above; conditions: source organism: Escherichia coli O157:H7
HLA-B*46:01 [12] = assay: as above; conditions: source organism: Escherichia coli O157:H7
HLA-B*48:01 = assay: as above; conditions: source organism: Escherichia coli O157:H7
HLA-B*57:01 = assay: as above; conditions: source organism: Escherichia coli O157:H7
HLA-B*44:02 = assay: as above; conditions: source organism: Rickettsia prowazekii
[13] = source organism: Vibrio vulnificus YJ016
[14] = source organism: Vibrio vulnificus
[15] = source organism: Yersinia pestis Nepal516
[16] = source organism: Human immunodeficiency virus 1
[17] = source organism: Vibrio cholerae O395
[18] = source organism: Pasteurella multocida
[19] = source organism: Escherichia coli 536
[20] = source organism: Escherichia coli O6
[21] = source organism: Escherichia coli O157:H7
[22] = source organism: Rickettsia prowazekii

Sequence: DAYGFHNYK
- Kd (HLA-A*01:01; [13]): ≥ 20 µM
- Kd (HLA-A*02:01 [1]; [13]): ≥ 20 µM
- Kd (HLA-A*03:01; [14]): 0.216 µM
- Kd (HLA-A*11:01; [14]): 0.13 µM
- Kd (HLA-A*24:03; [13]): ≥ 20 µM
- Kd (HLA-A*26:01 [2]; [13]): ≥ 20 µM
- Kd (HLA-A*30:01; [14]): 1.11 µM
- Kd (HLA-A*69:01 [3]; [13]): ≥ 20 µM
- Kd (HLA-B*07:02; [13]): ≥ 20 µM
- Kd (HLA-B*08:01; [13]): ≥ 20 µM
- Kd (HLA-B*15:01; [13]): ≥ 20 µM
- Kd (HLA-B*40:01; [13]): ≥ 20 µM
- Kd (HLA-B*58:01; [13]): ≥ 20 µM

Sequence: SLTPSPLDL
- Kd (HLA-A*02:01 [4]; [15]): 0.21 µM
- Kd (HLA-A*02:06; [15]): 1.39 µM

Sequence: NLGQHIYET
- Kd (HLA-A*02:01 [4]; [16]): 9 µM
- Kd (HLA-A*02:03; [16]): 0.116 µM
- Kd (HLA-A*02:06; [16]): 0.11 µM
- Kd (HLA-A*02:11; [16]): 0.0335 µM
- Kd (HLA-A*02:12; [16]): 0.323 µM
- Kd (HLA-A*02:19; [16]): 0.146 µM
- Kd (HLA-A*69:01 [5]; [16]): ≥ 20 µM

Sequence: RVHFHRFMY
- Kd (HLA-A*02:01 [4]; [17]): ≥ 20 µM
- Kd (HLA-A*02:03; [17]): ≥ 20 µM
- Kd (HLA-A*02:11; [17]): ≥ 20 µM
- Kd (HLA-A*02:12; [17]): ≥ 20 µM
- Kd (HLA-A*02:16): ≥ 20 µM
- Kd (HLA-A*02:19; [17]): ≥ 20 µM
- Kd (HLA-A*26:01 [6]): ≥ 20 µM
- Kd (HLA-A*29:02): 0.0042 µM
- Kd (HLA-A*68:02 [7]): ≥ 20 µM
- Kd (HLA-A*69:01 [5]; [17]): ≥ 20 µM
- Kd (HLA-B*18:01 [8]): ≥ 20 µM
- Kd (HLA-B*39:01): ≥ 20 µM
- Kd (HLA-B*46:01 [9]): ≥ 20 µM

- Kd (HLA-A*01:01; [18]): ≥ 20 µM
- Kd (HLA-A*02:01 [1]; [18]): ≥ 20 µM
- Kd (HLA-A*03:01; [18]): ≥ 20 µM
- Kd (HLA-A*11:01; [18]): ≥ 20 µM
- Kd (HLA-A*24:03; [18]): ≥ 20 µM
- Kd (HLA-A*26:01 [2]; [18]): ≥ 20 µM
- Kd (HLA-A*30:01; [18]): 15.7 µM
- Kd (HLA-A*31:01; [18]): ≥ 20 µM
- Kd (HLA-A*69:01 [3]; [18]): ≥ 20 µM
- Kd (HLA-B*08:01; [18]): 0.161 µM
- Kd (HLA-B*15:01; [18]): ≥ 20 µM
- Kd (HLA-B*27:05; [18]): ≥ 20 µM
- Kd (HLA-B*40:01; [18]): ≥ 20 µM
- Kd (HLA-B*58:01; [18]): ≥ 20 µM
Sequence: NNKSRLVAF

- Kd (HLA-A*01:01; [19]): ≥ 20 µM
- Kd (HLA-A*02:01 [1]; [19]): ≥ 20 µM
- Kd (HLA-A*03:01; [19]): ≥ 20 µM
- Kd (HLA-A*24:03; [20]): 0.00253 µM
- Kd (HLA-A*26:01 [2]; [19]): ≥ 20 µM
- Kd (HLA-A*30:01; [20]): 4.19 µM
- Kd (HLA-A*69:01 [3]; [19]): ≥ 20 µM
- Kd (HLA-B*07:02; [19]): ≥ 20 µM
- Kd (HLA-B*08:01; [19]): ≥ 20 µM
- Kd (HLA-B*15:01; [19]): ≥ 20 µM
- Kd (HLA-B*27:05; [19]): ≥ 20 µM
- Kd (HLA-B*40:01; [19]): ≥ 20 µM
- Kd (HLA-B*58:01; [20]): 9.09 µM
Sequence: RYICPVQQI

Sequence: RGRGVAIHR
- Kd (HLA-A*01:01; [21]): ≥ 20 µM
- Kd (HLA-A*02:01 [1]; [21]): ≥ 20 µM
- Kd (HLA-A*03:01; [21]): 0.487 µM
- Kd (HLA-A*11:01; [21]): ≥ 20 µM
- Kd (HLA-A*31:01; [21]): 0.0066 µM
- Kd (HLA-A*68:02 [10]): ≥ 20 µM
- Kd (HLA-B*07:02; [21]): ≥ 20 µM
- Kd (HLA-B*15:01; [21]): ≥ 20 µM
- Kd (HLA-B*15:17): ≥ 20 µM
- Kd (HLA-B*18:01 [11]): ≥ 20 µM
- Kd (HLA-B*27:05; [21]): ≥ 20 µM
- Kd (HLA-B*40:01; [21]): ≥ 20 µM
- Kd (HLA-B*46:01 [12]): ≥ 20 µM
- Kd (HLA-B*48:01): ≥ 20 µM
- Kd (HLA-B*57:01): ≥ 20 µM
- Kd (HLA-B*58:01; [21]): ≥ 20 µM
- Kd (HLA-A*02:06; source organism: Shigella dysenteriae 1012): 0.569 µM

Sequence: VVNYDNSTK
- Kd (HLA-A*01:01; [22]): ≥ 20 µM
- Kd (HLA-A*02:01 [1]; [22]): ≥ 20 µM
- Kd (HLA-A*03:01; [22]): 0.445 µM
- Kd (HLA-A*11:01; [22]): 0.0451 µM
- Kd (HLA-A*24:03; [22]): ≥ 20 µM
- Kd (HLA-A*26:01 [2]; [22]): ≥ 20 µM
- Kd (HLA-A*30:01; [22]): 1.74 µM
- Kd (HLA-A*31:01; [22]): 5.51 µM
- Kd (HLA-A*69:01 [3]; [22]): ≥ 20 µM
- Kd (HLA-B*07:02; [22]): ≥ 20 µM
- Kd (HLA-B*08:01; [22]): ≥ 20 µM
- Kd (HLA-B*15:01; [22]): ≥ 20 µM
- Kd (HLA-B*27:05; [22]): ≥ 20 µM
- Kd (HLA-B*40:01; [22]): ≥ 20 µM
- Kd (HLA-B*44:02): ≥ 20 µM
- Kd (HLA-B*58:01; [22]): ≥ 20 µM
